We go through 2 molecules from patent US20200171174A1 (Astellas, published 2020).

Positions count from the first letter of the chain named. Some results are limits rather than exact numbers.

The assay concerns the target T1, human cancer-specific MUC1 (human, UniProt P15941 24-1255).
T1 construct: whole, on cells; Endogenous MUC1 with cancer-specific incomplete O-glycosylation on cancer cells; also called Mucin 1; human MUC1
Kind of assay: Cell ELISA on formalin-fixed T-47D cells, HRP anti-human Ig kappa, luminescence. How it is done:
Specifically, breast cancer cell line T-47D cells (purchasable from ATCC; HTB-133) expressing human cancer-specific MUC1 were inoculated at 0.75×10⁴ cells per well to a 96-well ELISA plate coated with collagen I, and cultured overnight. […] Then, a horseradish peroxidase (HRP)-labeled goat anti-human Igκ antibody (Southern Biotechnology Associates, Inc.) was reacted as a secondary antibody. ECL Prime Western Blotting Detection Reagent (GE Healthcare Japan Corp.) was added thereto for luminescence, and the degree of the luminescence was examined.
For orientation: In an ELISA, binding on a coated surface is turned into a signal by an enzyme label.

B1: P10-2 Fab (Fab, V domains shown)
VH: QVQLVQSGAEVKKPGASVKVSCKASGYTFTNYGLSWVRQAPGQGLEWMGENHPGSGIIYHNEKFRGRVTLTADRSTSTAYMELSSLRSEDTAVYYCARSSGTRGFDYWGQGTLVTVSS
VL: DVVMTQTPLSLSVTPGQPASISCRSSQSIVHSNGNTYLEWYLQKPGQSPQLLIYRVSNRFSGVPDRFSGSGSGTDFTLKISRVEAEDVGVYYCFQGSHGPWTFGQGTKLEIKR
modifications: heavy chain N-terminal glutamine modified into pyroglutamic acid in a great majority of purified antibodies
notes: expressed in Expi293F cells, purified on KappaSelect; also called anti-human MUC1 antibody Fab fragment P10-2
As to B1, the “binding activity relative to 1B2 Fab” value was no less than 10 times.

B2: P10-1 Fab (Fab, V domains shown)
VH: B1 VH with D106A
VL: B1 VL
notes: expressed in Expi293F cells, purified on KappaSelect; also called anti-human MUC1 antibody Fab fragment P10-1
Turning to B2, the “binding activity relative to 1B2 Fab” value was no less than 10 times.
